No end group written: not given here.

This note sets out measurements from US7422862B2, “Methods for identifying modulators of apoptosis” (The Burnham Institute, priority 2001, dated 2008).

The target in assay [1] is T1, Bax (Homo sapiens, UniProt Q07812). As to the kind of experiment: Suppression of apoptosis induced by Bax over-expression (Humanin mutants). The class given is cell-based. Also on record: expressed in transfected cells; host or cells: HEK293T. Particulars: GFP-fusion polypeptides, 3:1 ratio of HN:Bax plasmid DNA. As for the experimental part:
(§1) Apoptosis assays were performed as follows. Both floating and adherent cells (after trypsinization) were collected 48 hr after transfection, fixed, and stained using 4′,6-diamidine-2′-phenylindole dihydrochloride (DAPI) for assessing apoptosis based on nuclear fragmentation and chromatin condensation (Fields and Song, supra (1989)).
(§2) In order to explore whether a correlation exists between Humanin binding to Bax and Humanin-mediated suppression of apoptosis, Bax was co-expressed with various GFP-fusion polypeptides encoding wild-type, full-length Humanin or various truncation and site-specific mutants of Humanin (Table 1). Expression of all GFP-fusion polypeptides was confirmed by immunoblotting, and ability to bind Bax was determined by co-immunoprecipitation assay. Each Humanin mutant was scored for ability to suppress apoptosis induced by Bax over-expression by >50% using a 3:1 ratio of HN:Bax plasmid DNA. […] Based on these studies, an active region of the 24 amino-acid Humanin peptide, mapped to residues 7-17.
Cell culture and transfections were performed as follows. CSM14.1, HCT116, Cos-7, and SF268 cells were cultured in DMEM high glucose media (Irvine Scientific, Santa Ana, Calif.) containing 10% fetal bovine serum (FBS). PC-3 cells were cultured with RPMI 1640 media containing 10% FBS. Transfection of cells was performed using SuperFect (Qiagen, Chatsworth, Calif.) or LipofectaminePLUS reagent ([…]).

In assay [2] the target is T1, Bax. As to the kind of experiment: Co-immunoprecipitation of GFP-Humanin fusion polypeptides with Bax in transfected cells. The class given is binding. Also on record: expressed in transfected cells; host or cells: HEK293T; key to Bax binding: +: ability to bind Bax was determined by co-immunoprecipitation assay; −: lacked Bax-binding activity. Particulars: for Bax binding: GFP-fusion polypeptides, co-immunoprecipitation.
Description: Humanin (HN) cDNA was sub-cloned into a Green Fluorescence Protein (GFP) expression vector GFP-Cl at the Xhol/Hind III sites, producing a GFP-HN fusion polypeptide. GFP and GFP-HN were transfected into 293T cells with pcDNA3-HA-Bax. Cell lysates from these cells were immunoprecipitated with anti-GFP antibody and subsequently blotted with anti-HA antibody. The lysates were also blotted with ani-GFP antibody to confirm polypeptide expression. […] The data shown were obtained using the cytosolic form of Humanin; however, both cytosolic and mitochondrial forms of Humanin were tested and the results were the same.
Co-immunoprecipitation assays were performed using Humanin polypeptides expressed as fusion polypeptides with the Green Fluorescent Protein (GFP) in human cells. Wild-type Humanin fused to GFP is referred to as GFP-HN and a mutant form of Humanin, where the cysteine at position 8 is replaced with proline, fused to GFP is referred to as GFP-C8P. […] Immunoblot analysis of lysates of the transfected cells confirmed production of all proteins. In addition, GFP-HN also coimmunoprecipitated endogenous Bax from cell lines, which contain relatively high levels of the Bax protein.
Immunoblotting and immunoprecipitations were performed as follows. Immunoblotting was performed as described previously (Fields and Song, Nature 340:245-246 (1989)). For co-immunoprecipitations, cells were cultured in 50 uM […] Valine Alanine Asparate fluoromethyl-ketone (zVAD-fmk) to prevent apoptosis. Cells were suspended in lysis buffer (50 mM Tris-HCl, pH7.4; 150 mM NaCl; 20 mM EDTA; 50 mM NaF; 0.5% NP-40; 0.1 mM Na3VO4; 20 ug/ml Leupeptin; 20 ug/ml Aprotinin; 1 mM DTT; and 1 mM PMSF). Lysates (200 ul diluted in 1 ml final volume of lysis buffer) were cleared by incubation with 15 ul of protein G-Sepharose 4B (Zymed) and then incubated with 15 ul of polyclonal antibody and 15 ul of protein G at 4° C. overnight. Beads were then washed 4 times with 1.5 mls lysis buffer before boiling in Laemmli sample buffer and performing SDS-PAGE/immunoblotting.
as §2

The target of assay [3] is T1, Bax. Briefly: Bax-induced apoptosis in transfected neuronal cells (DAPI staining). The class given is cell-based. Also on record: expressed in transfected cells. Particulars: CSM14.1 cells, 48 h, DAPI. As for the experimental part:
(A) HEK293T cells were transfected with pcDNA3-HA-Bax together with plasmids encoding GFP, GFP-HN(N), or GFP-HN(M). Cell lysates were immunoprecipitated with polyclonal anti-GFP antibody. Immunoprecipitates (IP) or cell lysates were analyzed by immunoblotting using anti-HA or anti-GFP antibodies, respectively. (B) CSM14.1 neuronal cells were co-transfected with pcDNA3-HA-Bax together with plasmids encoding GFP, GFP-HN(N), or GFP-HN(M). Percent apoptosis was determined 48 h later by DAPI staining (mean±SD; n=3).
Rat neuronal cell line CSM14.1 cells were transfected with various plasmids using the Lipofectamine reagent (Invitrogen). For transfection, 10×10^5 cells were plated per well using 6 well plates. Each well received 1 μg DNA plus […] of Lipofectamine. After 24 hours of transfection, the percentage of cell death was determined using 4′-6-diamidino-2-phenylindole (DAPI) staining. […] The data shown were obtained using the cytosolic form of Humanin; however, both cytosolic and mitochondrial forms of Humanin were tested and the results were the same.
as §1
Since Humanin co-immunoprecipitates with Bax but not Bak, the effects of Humanin over-expression on apoptosis induced by these members of the Bcl-2 family was compared. […] Similar results were obtained regardless of whether Humanin was fused to the N- or C-terminus of GFP, with both of these GFP fusion polypeptides localizing to the cytosol of cells.

T1 sequence (Q07812 whole entry, species assumed, the tested form may be a part): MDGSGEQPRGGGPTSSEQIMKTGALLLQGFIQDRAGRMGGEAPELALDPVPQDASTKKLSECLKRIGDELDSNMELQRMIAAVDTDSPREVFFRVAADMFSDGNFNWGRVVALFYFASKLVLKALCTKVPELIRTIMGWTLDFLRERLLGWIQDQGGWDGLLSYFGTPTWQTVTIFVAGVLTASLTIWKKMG

On to “3-18: GFP-fusion of Humanin truncation, residues 3-18 (PRGFSCLLLLTSEIDL; also: fused to GFP; UniProt Q8IVG9 3-18, looked up, fragment)”, for which the Bax suppression result in assay [1] is recorded as “+ (ability to suppress apoptosis induced by Bax over-expression by >50%)”. Further, the Bax binding result in assay [2] was “+”.
Regarding “3-19: GFP-fusion of Humanin truncation, residues 3-19 (PRGFSCLLLLTSEIDLP; also: fused to GFP; UniProt Q8IVG9 3-19, looked up, fragment)”, the Bax suppression entry in assay [1] was “+ (ability to suppress apoptosis induced by Bax over-expression by >50%)”. In assay [2], the Bax binding result is “+”.
“3-17: GFP-fusion of Humanin truncation, residues 3-17 (PRGFSCLLLLTSEID; also: fused to GFP; UniProt Q8IVG9 3-17, looked up, fragment)”: the Bax suppression result in assay [1] was “+ (ability to suppress apoptosis induced by Bax over-expression by >50%)”. Moreover, the Bax binding entry in assay [2] is recorded as “+”.
The matching figures for “10-24: GFP-fusion of Humanin truncation, residues 10-24 (LLLTSEIDLPVKRRA; also: fused to GFP; UniProt Q8IVG9 10-24, looked up, fragment)”: “− (failed to protect against Bax-induced apoptosis)” and “−”.
On the same counts, the results for “4-24: GFP-fusion of Humanin truncation, residues 4-24 (RGFSCLLLLTSEIDLPVKRRA; also: fused to GFP; UniProt Q8IVG9 4-24, looked up, fragment)” are “+ (ability to suppress apoptosis induced by Bax over-expression by >50%)” and “+”.
On the same counts, the results for “1-15: GFP-fusion of Humanin truncation, residues 1-15 (MAPRGFSCLLLLTSE; also: fused to GFP; UniProt Q8IVG9 1-15, looked up, fragment)” are “− (failed to protect against Bax-induced apoptosis)” and “−”.
As to “1-17: GFP-fusion of Humanin truncation, residues 1-17 (MAPRGFSCLLLLTSEID; also: fused to GFP; UniProt Q8IVG9 1-17, looked up, fragment)”, in assay [1], the Bax suppression result was “+ (ability to suppress apoptosis induced by Bax over-expression by >50%)”. Moreover, in assay [2], the Bax binding entry is on record as “+”.
On to “13-24: GFP-fusion of Humanin truncation, residues 13-24 (TSEIDLPVKRRA; also: fused to GFP; UniProt Q8IVG9 13-24, looked up, fragment)”, for which, in assay [1], the Bax suppression result was “− (failed to protect against Bax-induced apoptosis)”. Moreover, in assay [2], the Bax binding result is “−”.
On the same counts, the results for “7-24: GFP-fusion of Humanin truncation, residues 7-24 (SCLLLLTSEIDLPVKRRA; also: fused to GFP; UniProt Q8IVG9 7-24, looked up, fragment)” are “+ (ability to suppress apoptosis induced by Bax over-expression by >50%)” and “+”.
In the case of “GFP-HN(M): mitochondria-encoded Humanin (SEQ ID NO:3, 21 amino acids, Met at position 16) as GFP fusion”, the “co-immunoprecipitation with tagged Bax” value in assay [2] (293T/HEK293T cells, anti-GFP immunoprecipitation) is reported as “comparable amounts”. The “suppression of Bax-induced apoptosis, nuclear vs mitochondria-encoded form” value in assay [3] was “suppressed to comparable extents”.
As for “3-24: GFP-fusion of Humanin truncation, residues 3-24 (PRGFSCLLLLTSEIDLPVKRRA; also: fused to GFP; UniProt Q8IVG9 3-24, looked up, fragment)”, the Bax suppression entry in assay [1] is given as “+ (ability to suppress apoptosis induced by Bax over-expression by >50%)”. Moreover, in assay [2], the Bax binding result is “+”.
The matching figures for “GFP Only: Green Fluorescent Protein control without Humanin [reference compound]”: “− (failed to protect against Bax-induced apoptosis)” and “−”.
The matching figures for “1-12: GFP-fusion of Humanin truncation, residues 1-12 (MAPRGFSCLLLL; also: fused to GFP; UniProt Q8IVG9 1-12, looked up, fragment)”: “− (failed to protect against Bax-induced apoptosis)” and “−”.
